The values below come from article PMC5679670, “The helicase DinG responds to stress due to DNA double strand breaks” (PLoS ONE, 2017).

In one series the target is T1, DinGNm (Neisseria meningitidis, UniProt Q9K181).
T1 construct: gene dinG; full-length gene amplified from MC58 genomic DNA, C-terminal 6xHis tag (pET-28b(+), pSB13), E. coli NiCo21(DE3); Ni-NTA and Resource Q; iron-containing (4 Fe per protein)
T1 sequence (Q9K181 1-716): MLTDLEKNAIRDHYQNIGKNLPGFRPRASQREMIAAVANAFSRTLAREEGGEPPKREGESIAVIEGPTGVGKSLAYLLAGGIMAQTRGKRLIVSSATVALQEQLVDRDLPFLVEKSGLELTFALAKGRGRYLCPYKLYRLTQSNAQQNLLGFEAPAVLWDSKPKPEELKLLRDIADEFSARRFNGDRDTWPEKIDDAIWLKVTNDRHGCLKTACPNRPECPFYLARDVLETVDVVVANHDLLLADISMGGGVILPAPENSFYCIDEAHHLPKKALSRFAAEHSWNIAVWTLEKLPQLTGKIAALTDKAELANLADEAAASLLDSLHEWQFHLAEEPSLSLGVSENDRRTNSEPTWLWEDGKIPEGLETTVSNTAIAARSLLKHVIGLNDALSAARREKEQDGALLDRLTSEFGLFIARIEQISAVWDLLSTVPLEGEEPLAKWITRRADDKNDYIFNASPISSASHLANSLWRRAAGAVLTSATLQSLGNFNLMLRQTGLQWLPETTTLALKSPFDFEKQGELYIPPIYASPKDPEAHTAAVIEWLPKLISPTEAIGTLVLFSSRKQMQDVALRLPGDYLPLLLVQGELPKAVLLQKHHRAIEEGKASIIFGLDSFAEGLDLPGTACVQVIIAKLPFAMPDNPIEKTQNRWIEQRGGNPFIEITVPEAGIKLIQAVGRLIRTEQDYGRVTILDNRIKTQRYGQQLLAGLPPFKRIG
Briefly: forked DNA (T1+B1) unwinding, native PAGE. The format is biochemical. The following applies: 2 mM nucleotide, 2 mM Mg2+, 400 nM DinG, pH 7.5, 37 °C; read-out is nucleotide-dependent unwinding.

The target in series [1] is T2, Neisseria meningitidis helicase DinG (DinGNm) (N. meningitidis MC58, UniProt Q9K181 1-716).
T2 construct: DinG helicase of Neisseria meningitidis strain MC58, gene amplified from genomic DNA and cloned into pET-28b(+) (plasmid pSB13); also called Nm DinG; DNA damage-inducible protein DinG; source: E. coli NiCo21 (DE3) with pLysS, purified (Ni-NTA, Resource Q ion exchange)
T2 sequence (looked up): T1 sequence (Q9K181 1-716)
Briefly: MST; SSB proteins labelled (RED-NHS, 20.7 nM), DinG proteins titrated as ligands; 20 mM HEPES pH 7.5, 300 mM NaCl, 0.05% Tween 20, 0.1% Pluronic F-127, 0.1% PEG 8000, 2 mM DTT; 22°C, 20% MST power. Conditions: both partners purified.

The next series concerns the target DinGNmK72A (Neisseria meningitidis MC58, UniProt Q9K181 1-716, K72A). Briefly: EMSA; protein titration; mutant retained DNA binding affinity; EMSA: 40 mM Tris-HCl pH 8, 2.5 mM EDTA, 2 mM MgCl2, 100 mg/ml BSA (so in the source), 6% glycerol, 2 mM DTT, 0.1 nM 32P-DNA, 15 min on ice; 5% native PAGE in ice bath. Conditions: protein: recombinant; tags: C-terminal 6xHis; label: 32P; single strand.

In series [2] the target is SSBNmΔ8C (N. meningitidis MC58). Briefly: MST; SSB proteins labelled (RED-NHS, 20.7 nM), DinG proteins titrated as ligands; 20 mM HEPES pH 7.5, 300 mM NaCl, 0.05% Tween 20, 0.1% Pluronic F-127, 0.1% PEG 8000, 2 mM DTT; 22°C, 20% MST power.

Regarding `Nc1ncnc2c1ncn2[C@H]1C[C@H](O)[C@@H](COP(=O)(O)OP(=O)(O)OP(=O)(O)O)O1` [dATP], on DinGNm, the “forked DNA (T1+B1) unwinding, native PAGE” value is given as “unwinding activity of DinGNm was observed only in the presence of ATP or dATP”.

B1: Neisseria meningitidis single-stranded DNA binding protein (SSBNm) (natural protein, N. meningitidis MC58, UniProt P66848 1-174, looked up)
chain: MSLNKVILIGRLGRDPEVRYMPNGEAVCNFSVATSETWNDRNGQRVERTEWHNITMYRKLAEIAGQYLKKGGLVYLEGRIQSRKYQGKDGIERTAYDIVANEMKMLGGRNENSGGAPYEEGYGQSQEAYQRPAQQSRQPASDAPSHPQEAPAAPRRQPVPAAAPVEDIDDDIPF
modifications: in the MST assay labelled with the Monolith NT Protein Labeling Kit RED-NHS, degree of labelling 0.7
notes: SSB of Neisseria meningitidis, expression vector pEH1; Unlabelled in the ammonium sulphate co-precipitation
The Kd is the constant that tells how readily two partners part at equilibrium. Read a low Kd as higher affinity. For the molecule B1, the Kd in series [1] amounted to 1360 ± 110 nM.

B2: poly dT100 (ssDNA)
DNA: TTTTTTTTTTTTTTTTTTTTTTTTTTTTTTTTTTTTTTTTTTTTTTTTTTTTTTTTTTTTTTTTTTTTTTTTTTTTTTTTTTTTTTTTTTTTTTTTTTTT
In the case of B2, in the series with DinGNmK72A, the binding result is on record as “binds”.

B3: Neisseria meningitidis helicase DinG (DinGNm) (enzyme)
chain: T1 sequence (Q9K181 1-716)
Molecule B3 returned a Kd in series [2] of 3710 nM.
